Assay results published in patent US20210040194A1 (AstraZeneca / MedImmune, published 2021).
Numbering of substitutions follows the chain as printed.

Tests used:
[1] = target: T1, Human ANG-2 (huAng2) (human, UniProt O15123 19-496, limits assumed); test: KinExA equilibrium, standard affinity model (ref [Ligand])
T1 construct: also called human Ang2-biotin
T1 sequence (looked up): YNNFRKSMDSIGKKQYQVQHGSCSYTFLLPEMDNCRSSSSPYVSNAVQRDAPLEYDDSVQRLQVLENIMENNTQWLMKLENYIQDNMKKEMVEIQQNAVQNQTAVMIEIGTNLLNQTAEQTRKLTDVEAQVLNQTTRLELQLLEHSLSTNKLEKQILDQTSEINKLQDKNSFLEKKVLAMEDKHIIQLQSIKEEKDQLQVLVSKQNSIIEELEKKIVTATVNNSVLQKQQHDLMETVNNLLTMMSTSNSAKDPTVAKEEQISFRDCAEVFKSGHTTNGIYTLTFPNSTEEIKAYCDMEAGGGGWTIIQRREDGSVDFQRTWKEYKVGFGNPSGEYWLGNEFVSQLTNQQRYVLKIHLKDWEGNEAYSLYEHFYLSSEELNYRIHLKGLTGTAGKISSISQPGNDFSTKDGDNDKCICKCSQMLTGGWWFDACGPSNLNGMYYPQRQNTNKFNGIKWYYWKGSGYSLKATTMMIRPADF
Experimental: (§1) Human ANG-2 (huAng2) protein was coated onto UltraLink® Biosupport beads (PIERCE, Rockford, Ill.) at concentrations of 5 mg/mL and 30 mg/mL in coating buffer (50 mM sodium carbonate buffer, pH 9). Coated beads were then separated (gentle pulse spin) from unreacted huAng2 protein solution, and blocked with 1M Tris, pH 8, containing BSA at 10 mg/mL) for approximately 15 minutes at room temperature. After this, the bead slurry was spun to remove the blocking solution, and then the block step was repeated for approximately 2 hours using fresh block buffer, and stored at 4° C. until used. Prior to use, the huAng2-coated beads were transferred to a bead vial, resuspended in approximately 27 mLs of instrument buffer (HBS-P buffer, pH 7.4; contains 10 mM HEPES, 0.15M NaCl, 0.005% P20+0.02% NaN3), and affixed to the KinExA instrument. […] These concentrations of bispecific antibody were chosen to allow measurements to be made under both receptor- and KD-controlled conditions, which would allow for more rigorous estimations of reagent activity and affinity, respectively. Two-fold serial dilutions of huAng2 protein were then titrated across nine of the tubes containing the bispecific solutions, followed by 10-fold-dilutions across two more tubes, leaving one tube as the bispecific-only, “zero” control. […]

[2] = target: T2, cyno Ang2 (cyno, UniProt A0A2K5VNX6 19-496); test: cell-based or functional assay
T2 sequence: T1 sequence (looked up) with E258G, I279V, F284L, I291V, G410A, A468G, D477G

[3] = target: T1, Human ANG-2 (huAng2); test: cell-based or functional assay
[4] = target: T3, mouse Ang2 (mouse, UniProt O35608 19-496, limits assumed); test: cell-based or functional assay
T3 sequence (looked up): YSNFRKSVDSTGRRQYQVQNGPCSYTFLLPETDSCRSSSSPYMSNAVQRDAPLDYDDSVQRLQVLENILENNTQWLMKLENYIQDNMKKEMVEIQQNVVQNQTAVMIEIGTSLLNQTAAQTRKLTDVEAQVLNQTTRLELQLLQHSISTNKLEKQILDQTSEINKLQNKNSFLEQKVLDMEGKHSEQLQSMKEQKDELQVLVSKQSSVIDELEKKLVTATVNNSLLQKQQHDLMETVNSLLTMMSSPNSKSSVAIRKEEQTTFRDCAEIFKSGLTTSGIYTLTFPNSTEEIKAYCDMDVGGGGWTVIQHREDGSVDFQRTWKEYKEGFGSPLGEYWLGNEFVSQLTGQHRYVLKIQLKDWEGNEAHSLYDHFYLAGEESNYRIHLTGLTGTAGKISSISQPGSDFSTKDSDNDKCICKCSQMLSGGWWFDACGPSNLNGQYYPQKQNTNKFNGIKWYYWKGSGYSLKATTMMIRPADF

[5] = target: T1, Human ANG-2 (huAng2); test: KinExA equilibrium, alternate model (ref [IgG])
Experimental: as §1

B1: BiS3Ab-VEGF H1RK-ANG-2 (bispecific antibody, human IgG1, kappa)
heavy: not shown
light: EIVLTQSPATLSLSPGERATLSCRASQSVHSSYLAWYQQKPGQAPRLLIYGASSRATGIPDRFSGSGSGTDFTLTISRLEPEDFAVYYCQQSYRTPSFGQGTRLEIKRTVAAPSVFIFPPSDEQLKSGTASVVCLLNNFYPREAKVQWKVDNALQSGNSQESVTEQDSKDSTYSLSSTLTLSKADYEKHKVYACEVTHQGLSSPVTKSFNRGEC
notes: Full-length IgG (Fab arm anti-VEGF-A) with an anti-ANG-2 scFv linked to the C-terminus of each heavy chain (BiS3 format); also called BiSAb-VEGF H1RK-ANG-2; Bs3Ab-VEGF-Ang2
[1]
  Kd: 23.3 pM
[2]
  Cyno pTie2 EC50 (nM): 3.47 nM
[3]
  Hu pTie2 EC50 (nM), Hek293-Tie2 cells: 2.29 nM
[4]
  Mu pTie2 EC50 (nM): 12.2 nM
[5]
  Kd: 4.35 pM
